Results as given in article PMC9892492, “Bioconversion of 4-hydroxyestradiol by extradiol ring-cleavage dioxygenases from Novosphingobium sp. PP1Y” (Scientific Reports, 2023).

Experiments:
Test in all cases: purified protein
Conditions in all cases: 50 mM Tris/HCl pH 7.5, 25 °C, O2 co-substrate, Fe(II) enzyme
Cc1cccc(O)c1O = system: T1, Cc1cccc(O)c1O; assay type: biochemical, Novosphingobium sp. PP1Y
T1 construct: full ORF in pET22b(+), E. coli BL21(DE3); Q Sepharose column purified, contaminated; no tag mentioned

[1] = system: [H][C@@]12CCc3c(ccc(O)c3O)[C@@]1([H])CC[C@]1(C)[C@@H](O)CC[C@@]21[H]
Oc1cccc(-c2ccccc2)c1O = system: Oc1cccc(-c2ccccc2)c1O
purified protein [2] = substrate: Cc1ccc(O)c(O)c1; assay type: biochemical, Novosphingobium sp. PP1Y
purified protein [3] = substrate: Cc1cccc(O)c1O; assay type: biochemical, Novosphingobium sp. PP1Y
purified protein [4] = substrate: [H][C@@]12CCc3c(ccc(O)c3O)[C@@]1([H])CC[C@]1(C)[C@@H](O)CC[C@@]21[H]; assay type: biochemical, Novosphingobium sp. PP1Y
purified protein [5] = substrate: Oc1ccccc1O; assay type: biochemical, Novosphingobium sp. PP1Y
purified protein [6] = substrate: Oc1cccc(-c2ccccc2)c1O; remark: listed apart in the source

| Molecule | Km (purified protein [2]) [µM] | kcat (purified protein [2]) [s⁻¹] | kcat/Km (purified protein [2]) [M⁻¹ s⁻¹] | Km (purified protein [3]) [µM] | kcat (purified protein [3]) [s⁻¹] | kcat/Km (purified protein [3]) [M⁻¹ s⁻¹] | Km (purified protein [5]) [µM] | kcat (purified protein [5]) [s⁻¹] | kcat/Km (purified protein [5]) [M⁻¹ s⁻¹] | Km (purified protein [6]) [µM] | kcat (purified protein [6]) [s⁻¹] | kcat/Km (purified protein [6]) [M⁻¹ s⁻¹] | other results |
| --- | --- | --- | --- | --- | --- | --- | --- | --- | --- | --- | --- | --- | --- |
| PP28735 (Novosphingobium sp. PP1Y) |  |  |  |  |  |  |  |  |  |  |  |  | Km (Cc1cccc(O)c1O): 451 µM; kcat (Cc1cccc(O)c1O): 1.47 s⁻¹; kcat/Km (Cc1cccc(O)c1O): 3300 M⁻¹ s⁻¹; Km [1]: 1.90 µM; kcat [1]: 38.2 s⁻¹; kcat/Km [1]: 2.01e+07 M⁻¹ s⁻¹; Km (Oc1cccc(-c2ccccc2)c1O): 67.90 µM; kcat (Oc1cccc(-c2ccccc2)c1O): 18.6 s⁻¹; kcat/Km (Oc1cccc(-c2ccccc2)c1O): 270000 M⁻¹ s⁻¹ |
| PP00124 (Novosphingobium sp. PP1Y) (protein, full ORF in pET22b(+), E. coli BL21(DE3); Q-Sepharose batch purified; no tag mentioned) MVAVTELGYLGLTVTDLDAWRSYAAEVAGMEIVDEGEGDCLYLRMDQWHHRIALHAGDTDDLAYLGWRVAGPVEFDAMVAQLAAAGIAVEVASEAEARERRVLGLAKLADPGGNPTEIFYAPQVDTHKPFHPGRPMFGRFLTGSEGIGHCILRQDDVAAAAAFYGLLGLRGSVEYHLQLPNGMVAQPYFMHCNERQHSIAFGLGPMEKRINHLMFEYTDLDDLGLAHDIVRARKIDVALQLGKHANDQALTFYCANPSGWLWEFGWGARKAPSQQEYYTRDIFGHGNEAAGYGMDIPLG | 1.80 | 2.97 | 1.65e+06 | 2.90 | 10.2 | 3.53e+06 | 38.20 | 5.44 | 140000 | 3.70 | 13.8 | 3.72e+06 | Km (purified protein [4]): 0.75 µM; kcat (purified protein [4]): 8.6 s⁻¹; kcat/Km (purified protein [4]): 1.14e+07 M⁻¹ s⁻¹ |
| PP26077 (Novosphingobium sp. PP1Y) (protein, full ORF in pET22b(+), E. coli BL21(DE3); Q-Sepharose batch purified; no tag mentioned) MGIKALGYVVVETAKPEEWNTFLTQFAGAMRAPDAADGAALYRVDDRVFRFRIEAGTREWFVAAGYELTDRAALDALAVRIGDAARPVEWADANEAAGRGAEAMFRTSDPAGNGLEFYCGDARSDKPFVSPIGVPEFLTGDLGMGHAVFSAPDFEETIAFHRDVVGFHETDMPRFHLMGPDAPSMGFAFLHADNGRHHSIAFGEGPVPPSGAVHIMLELPDLIEVGKAHDRMKRFGYPESATLGRHVNDETTGFYVQTPSGFDLEIGCDSLIIDPASWEVTKHEGISVWGHEWAWQKALKEQQEQEKGA |  |  |  | 2600 | 3 | 1200 |  |  |  | 35.20 | 8.9 | 250000 |  |
| PP00193 (Novosphingobium sp. PP1Y) (protein, full ORF in pET22b(+), E. coli BL21(DE3); Q-Sepharose batch purified; no tag mentioned) MALTGVLRPGYVQLRVLDLDEAIQHYRDRIGLNLVSVEDGRAFFQAFDEFDRHSIILREADSAGLDRMAFKVAKDADLDHFAERLLDMGVHVDIIPAGEDPGVGRKIRFNTPTAHVFDLYAEMELSETGPAVRNPDVWIAEPRGMRATRFDHCALNGVDISASAKIFVEALDFSVTEELVDEASGTRLGIFLSCSNKAHDVAFLGYPEDGRIHHTSFNLESWHDVGHAADIISRYDISLDIGPTRHGITRGQTIYFFDPSGNRNETFSGGYTYYPDNPRRMWQAENAGKAIFYYEKALNDRFMTVNT | 1.89 | 120 | 6.35e+07 | 3.17 | 225 | 7.09e+07 | 1.69 | 194 | 1.15e+08 | 3.15 | 30.5 | 9.7e+06 |  |
